Laboratory results: the supplement of paper PMC9112550, “Optimization of the antimicrobial peptide Bac7 by deep mutational scanning” (BMC Biology, 2022)

test system: Escherichia coli TOP10; test: shrunken log2 fold change of peptide-encoding DNA abundance (4.5 h post-induction vs induction); higher = less antimicrobial activity (less host growth inhibition); settings: time post-induction: 4.5 h; library: site-saturation at positions 5, 18, 19, 20
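Further: peptides expressed intracellularly from a pBAD plasmid library in pooled LB shake-flask culture, induced with 0.3% L-arabinose, DNA abundance read by NGS, three biological replicates, DESeq2 with apeglm shrinkage.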

First: RRIRCRPPRLPRPRPRPQIAPRP
Second: RRIRGRPPRLPRPRPRPMTWPRP
The “shrunken log2 fold change” value of the first is lower: -0.0699 for the first, 0.17 for the second.

Going from RRIRFRPPRLPRPRPRPWNSPRP to RRIRWRPPRLPRPRPRPTTEPRP, the “shrunken log2 fold change” value rises from -0.976 to 0.207.

First: RRIRQRPPRLPRPRPRPPPYPRP
Second: RRIRFRPPRLPRPRPRPPTTPRP
The “shrunken log2 fold change” value of the first is lower: -0.0506 for the first, 0.276 for the second.

Compared with RRIRRRPPRLPRPRPRPIHHPRP, RRIRMRPPRLPRPRPRPPHCPRP is higher in “shrunken log2 fold change” value: -0.207 for the first, 1.68 for the second.

Compared with RRIRRRPPRLPRPRPRPKAPPRP, RRIRKRPPRLPRPRPRPIYSPRP is lower in “shrunken log2 fold change” value: 0.0122 for the first, -0.41 for the second.

First: RRIRQRPPRLPRPRPRPNKAPRP
Second: RRIRCRPPRLPRPRPRPYTYPRP
The “shrunken log2 fold change” value of the first is higher: -0.041 for the first, -0.456 for the second.

Compared with RRIRMRPPRLPRPRPRPYVPPRP, RRIRCRPPRLPRPRPRPHFEPRP is higher in “shrunken log2 fold change” value: -0.584 for the first, -0.152 for the second.

RRIRDRPPRLPRPRPRPFFQPRP and RRIRQRPPRLPRPRPRPDNEPRP are within 0.2 log units of each other in “shrunken log2 fold change” value: -0.24 for the first, -0.359 for the second.

First: RRIRERPPRLPRPRPRPNLVPRP
Second: RRIRWRPPRLPRPRPRPGYAPRP
The “shrunken log2 fold change” value of the first is lower: -0.0264 for the first, 0.38 for the second.

Going from RRIRVRPPRLPRPRPRPPLKPRP to RRIRDRPPRLPRPRPRPPYPPRP, the “shrunken log2 fold change” value falls from 0.343 to 0.109.

First: RRIRRRPPRLPRPRPRPQIGPRP
Second: RRIRIRPPRLPRPRPRPHANPRP
The “shrunken log2 fold change” value of the first is higher: 0.164 for the first, -0.181 for the second.

RRIRFRPPRLPRPRPRPDFYPRP and RRIRVRPPRLPRPRPRPIQTPRP are within 0.2 log units of each other in “shrunken log2 fold change” value: -0.105 for the first, -0.0164 for the second.

RRIRKRPPRLPRPRPRPSYGPRP and RRIRDRPPRLPRPRPRPQEYPRP are within 0.2 log units of each other in “shrunken log2 fold change” value: -0.141 for the first, -0.0984 for the second.

Going from RRIRDRPPRLPRPRPRPRVSPRP to RRIRHRPPRLPRPRPRPSPSPRP, the “shrunken log2 fold change” value falls from 0.223 to 0.00467.

Compared with RRIRLRPPRLPRPRPRPHITPRP, RRIRCRPPRLPRPRPRPMPYPRP is higher in “shrunken log2 fold change” value: -0.824 for the first, -0.189 for the second.

First: RRIRERPPRLPRPRPRPTAEPRP
Second: RRIRERPPRLPRPRPRPCTKPRP
The “shrunken log2 fold change” value of the first is higher: 0.265 for the first, -0.63 for the second.

Compared with RRIRFRPPRLPRPRPRPDTVPRP, RRIRCRPPRLPRPRPRPKPVPRP is higher in “shrunken log2 fold change” value: -0.0794 for the first, 0.179 for the second.

RRIRLRPPRLPRPRPRPHLLPRP and RRIRDRPPRLPRPRPRPMHIPRP are within 0.2 log units of each other in “shrunken log2 fold change” value: -0.0156 for the first, -0.11 for the second.

First: RRIRARPPRLPRPRPRPLEVPRP
Second: RRIRWRPPRLPRPRPRPWICPRP
The “shrunken log2 fold change” value of the first is higher: 0.676 for the first, -0.137 for the second.

Compared with RRIRARPPRLPRPRPRPTSEPRP, RRIRLRPPRLPRPRPRPSIQPRP is lower in “shrunken log2 fold change” value: 0.751 for the first, -1.1 for the second.

Compared with RRIRRRPPRLPRPRPRPYMYPRP, RRIRFRPPRLPRPRPRPRRLPRP is higher in “shrunken log2 fold change” value: -0.74 for the first, 0.462 for the second.

First: RRIRNRPPRLPRPRPRPLMWPRP
Second: RRIRYRPPRLPRPRPRPVKMPRP
The “shrunken log2 fold change” value of the first is higher: -0.175 for the first, -0.392 for the second.

Compared with RRIRKRPPRLPRPRPRPKQLPRP, RRIRQRPPRLPRPRPRPEFYPRP is lower in “shrunken log2 fold change” value: 0.417 for the first, -0.0478 for the second.

RRIRIRPPRLPRPRPRPVASPRP and RRIRVRPPRLPRPRPRPVLIPRP are within 0.2 log units of each other in “shrunken log2 fold change” value: -0.14 for the first, -0.186 for the second.

RRIRERPPRLPRPRPRPHREPRP and RRIRYRPPRLPRPRPRPWFHPRP are within 0.2 log units of each other in “shrunken log2 fold change” value: -0.0302 for the first, -0.17 for the second.

Going from RRIRPRPPRLPRPRPRPRLFPRP to RRIRPRPPRLPRPRPRPYSDPRP, the “shrunken log2 fold change” value falls from 1.92 to -0.713.

First: RRIRNRPPRLPRPRPRPPPCPRP
Second: RRIRLRPPRLPRPRPRPHAGPRP
The “shrunken log2 fold change” value of the first is higher: 0.756 for the first, 0.168 for the second.

Compared with RRIRMRPPRLPRPRPRPYKGPRP, RRIRARPPRLPRPRPRPCECPRP is higher in “shrunken log2 fold change” value: -0.046 for the first, 0.633 for the second.

Going from RRIRMRPPRLPRPRPRPAFHPRP to RRIRTRPPRLPRPRPRPNMGPRP, the “shrunken log2 fold change” value falls from 0.319 to -0.0939.

Compared with RRIRQRPPRLPRPRPRPEKVPRP, RRIRYRPPRLPRPRPRPQHHPRP is lower in “shrunken log2 fold change” value: -0.155 for the first, -0.55 for the second.

RRIRVRPPRLPRPRPRPTCYPRP and RRIRARPPRLPRPRPRPGTFPRP are within 0.2 log units of each other in “shrunken log2 fold change” value: -0.118 for the first, -0.125 for the second.

Compared with RRIRYRPPRLPRPRPRPCGMPRP, RRIRWRPPRLPRPRPRPANIPRP is lower in “shrunken log2 fold change” value: -0.217 for the first, -0.884 for the second.

RRIRERPPRLPRPRPRPKKSPRP and RRIRRRPPRLPRPRPRPNLVPRP are within 0.2 log units of each other in “shrunken log2 fold change” value: -0.182 for the first, -0.023 for the second.

Compared with RRIRWRPPRLPRPRPRPLSRPRP, RRIRIRPPRLPRPRPRPKAIPRP is lower in “shrunken log2 fold change” value: 0.141 for the first, -0.157 for the second.

RRIRCRPPRLPRPRPRPMFDPRP and RRIRDRPPRLPRPRPRPCALPRP are within 0.2 log units of each other in “shrunken log2 fold change” value: -0.246 for the first, -0.0616 for the second.

Compared with RRIRERPPRLPRPRPRPVTMPRP, RRIRRRPPRLPRPRPRPPWLPRP is higher in “shrunken log2 fold change” value: -0.433 for the first, 0.634 for the second.

RRIRGRPPRLPRPRPRPMNYPRP and RRIRERPPRLPRPRPRPYGCPRP are within 0.2 log units of each other in “shrunken log2 fold change” value: 0.00834 for the first, -0.105 for the second.

RRIRDRPPRLPRPRPRPNRLPRP and RRIRNRPPRLPRPRPRPYEPPRP are within 0.2 log units of each other in “shrunken log2 fold change” value: 0.0873 for the first, -0.0287 for the second.

Going from RRIRDRPPRLPRPRPRPRLPPRP to RRIRNRPPRLPRPRPRPQCVPRP, the “shrunken log2 fold change” value falls from 0.4 to -0.0063.

First: RRIRARPPRLPRPRPRPPCEPRP
Second: RRIRKRPPRLPRPRPRPHVPPRP
The “shrunken log2 fold change” value of the first is higher: 0.716 for the first, 0.207 for the second.

RRIRYRPPRLPRPRPRPKSFPRP and RRIRKRPPRLPRPRPRPWEQPRP are within 0.2 log units of each other in “shrunken log2 fold change” value: -0.0139 for the first, 0.0133 for the second.

First: RRIRPRPPRLPRPRPRPLINPRP
Second: RRIRGRPPRLPRPRPRPYAWPRP
The “shrunken log2 fold change” value of the first is lower: -0.298 for the first, 0.0018 for the second.

Going from RRIRFRPPRLPRPRPRPDKNPRP to RRIRGRPPRLPRPRPRPERHPRP, the “shrunken log2 fold change” value rises from -0.413 to 0.834.

RRIRLRPPRLPRPRPRPQRHPRP and RRIRKRPPRLPRPRPRPYHWPRP are within 0.2 log units of each other in “shrunken log2 fold change” value: -0.0803 for the first, -0.164 for the second.

RRIRSRPPRLPRPRPRPRQKPRP and RRIRLRPPRLPRPRPRPTRHPRP are within 0.2 log units of each other in “shrunken log2 fold change” value: 0.29 for the first, 0.156 for the second.

RRIRHRPPRLPRPRPRPNGRPRP and RRIRCRPPRLPRPRPRPLHQPRP are within 0.2 log units of each other in “shrunken log2 fold change” value: -9.3e-05 for the first, -0.168 for the second.

RRIRIRPPRLPRPRPRPEFCPRP and RRIRRRPPRLPRPRPRPFSVPRP are within 0.2 log units of each other in “shrunken log2 fold change” value: -0.0252 for the first, 0.0458 for the second.

Going from RRIRARPPRLPRPRPRPGQGPRP to RRIRYRPPRLPRPRPRPRWVPRP, the “shrunken log2 fold change” value falls from 0.204 to -0.0064.

RRIRNRPPRLPRPRPRPQQDPRP and RRIRIRPPRLPRPRPRPTDQPRP are within 0.2 log units of each other in “shrunken log2 fold change” value: -0.38 for the first, -0.51 for the second.

RRIRQRPPRLPRPRPRPHPCPRP and RRIRARPPRLPRPRPRPCRRPRP are within 0.2 log units of each other in “shrunken log2 fold change” value: -0.0985 for the first, -0.085 for the second.

Going from RRIRARPPRLPRPRPRPRKRPRP to RRIRMRPPRLPRPRPRPQLPPRP, the “shrunken log2 fold change” value falls from 0.778 to -0.105.

Going from RRIRMRPPRLPRPRPRPQKYPRP to RRIRPRPPRLPRPRPRPLWRPRP, the “shrunken log2 fold change” value rises from 0.136 to 0.446.

RRIRTRPPRLPRPRPRPLPKPRP and RRIRNRPPRLPRPRPRPGKDPRP are within 0.2 log units of each other in “shrunken log2 fold change” value: -0.0549 for the first, -0.0565 for the second.

RRIRMRPPRLPRPRPRPWALPRP and RRIRRRPPRLPRPRPRPTTLPRP are within 0.2 log units of each other in “shrunken log2 fold change” value: 0.0536 for the first, 0.0363 for the second.

Compared with RRIRGRPPRLPRPRPRPGANPRP, RRIRDRPPRLPRPRPRPRSEPRP is lower in “shrunken log2 fold change” value: 0.874 for the first, -0.0682 for the second.

Going from RRIRIRPPRLPRPRPRPQHIPRP to RRIRLRPPRLPRPRPRPFVQPRP, the “shrunken log2 fold change” value rises from -0.542 to -0.284.

RRIRARPPRLPRPRPRPKSCPRP and RRIRWRPPRLPRPRPRPLKCPRP are within 0.2 log units of each other in “shrunken log2 fold change” value: 0.129 for the first, 0.0309 for the second.

First: RRIRFRPPRLPRPRPRPKISPRP
Second: RRIRLRPPRLPRPRPRPCFDPRP
The “shrunken log2 fold change” value of the first is lower: -0.596 for the first, -0.293 for the second.

RRIRVRPPRLPRPRPRPANFPRP and RRIRRRPPRLPRPRPRPCIKPRP are within 0.2 log units of each other in “shrunken log2 fold change” value: 0.0908 for the first, -0.0974 for the second.

Going from RRIRCRPPRLPRPRPRPDAMPRP to RRIRPRPPRLPRPRPRPEACPRP, the “shrunken log2 fold change” value rises from 0.0677 to 0.321.

Going from RRIRIRPPRLPRPRPRPEMPPRP to RRIRPRPPRLPRPRPRPHEPPRP, the “shrunken log2 fold change” value rises from 0.0112 to 0.239.

Going from RRIRGRPPRLPRPRPRPNIMPRP to RRIRDRPPRLPRPRPRPFEDPRP, the “shrunken log2 fold change” value rises from 0.0649 to 0.265.

For RRIRQRPPRLPRPRPRPCGSPRP, the “shrunken log2 fold change” value was -0.000687.
